Holding throughout (test): cell_activity
One data set has as its system ZFN 25688 (synthetic). As to conditions: pair 25688/25689, maize.
For the next data set, the system named is ZFN 25687 (synthetic). Particulars: pair 25686/25687, maize.
The subject of a further data set is ZFN 25712 (synthetic). As to conditions: pair 25712/25713, maize.
The next data set has as its system ZFN 29732 (synthetic). As to conditions: pair 29732/29730, donor pDAS000152 10:1, A-genome (B 6306, D 7911), wheat SEC protoplasts.
The next data set has as its system ZFN 25717 (synthetic). Particulars: pair 25716/25717, maize; text states 380 times control.
In the next data set the test system is ZFN 25713 (synthetic). As to conditions: pair 25712/25713, maize.
For the next data set, the system named is ZFN 29730 (synthetic). Particulars: pair 29732/29730, donor pDAS000152 10:1, A-genome (B 6306, D 7911), wheat SEC protoplasts.
In a further data set the test system is ZFN 25689 (synthetic). As to conditions: pair 25688/25689, maize.
The next data set relates to ZFN 25716 (synthetic). Particulars: pair 25716/25717, maize; text states 380 times control.
The test system of the next data set is ZFN 25686 (synthetic). As to conditions: pair 25686/25687, maize.

In the data set on ZFN 25688 (synthetic), “TATCGGCACAACAAGACTGCGGGTTCGG (double strand) [25688 site]” yielded an activity (% of IPPK2 ZFN activity) of 108.
On to “GATAGGTGGCAGTGGCAGTGGCACTGGC (double strand) [25687 site]”, for which the activity (% of IPPK2 ZFN activity) in the data set on ZFN 25687 (synthetic) stood at 32.
In turn, “ATCGGGCATCGGCGACTGATGAGCCTTG (double strand) [25712 site]” gave an activity (% of IPPK2 ZFN activity) in the data set with ZFN 25712 (synthetic) of 69.
As to “GATCCCAAGCGGTGGTGCTTTCAAGGAC (double strand) [29732 site]”, the activity (ppm NHEJ editing) in the data set with ZFN 29732 (synthetic) stood at 6720.
Consider “CGGAAGCGGATGGCCCGCTTCTTTAGAA (double strand) [25717 site]”, for which, in the data set with ZFN 25717 (synthetic), the activity (% of IPPK2 ZFN activity as printed) is 380.
Regarding “GATCAACGGAAGCGGATGGCCCGCTTCT (double strand) [25713 site]”, the activity (% of IPPK2 ZFN activity) in the data set on ZFN 25713 (synthetic) came to 69.
As for “AGGCAGCACGTGCTCCTGATGCGGGACT (double strand) [29730 site]”, the activity (ppm NHEJ editing) in the data set with ZFN 29730 (synthetic) worked out at 6720.
In the data set with ZFN 25689 (synthetic), “TGGCAGTGGCAGTGGCACTGGCACGGCA (double strand) [25689 site]” showed an activity (% of IPPK2 ZFN activity) of 108.
On to “TGATCGCATCGGGCATCGGCGACTGATG (double strand) [25716 site]”, for which the activity (% of IPPK2 ZFN activity as printed) with ZFN 25716 (synthetic) was determined as 380.
“CACAACAAGACTGCGGGTTCGGTGGCGC (double strand) [25686 site]”: the activity (% of IPPK2 ZFN activity) with ZFN 25686 (synthetic) was found to be 32.

(Values after US20130326645.)
